Where no end group is shown, it is not given here. The star is where a group is joined. Biotin = O=C1N[C@H]2[C@H](CS[C@H]2CCCCC(=O)*)N1
How the values were obtained:
[1] = target: T1, G6A/OxCE reaction product (biotin-GDGDGA peptide subjected to the OxCE modification procedure); assay: peptide ELISA on streptavidin plates
T1 construct: Negative control peptide in which the C-terminal Lys is replaced with Ala
T1 peptide: Biotin-GDGDGA
Protocol: Biotinylated short peptides G6A-OH, G6K-OH (non-modified) or G6K-OxCE (modified with OxCE) were immobilized to streptavidin pre-coated plates (Eagle Biosciences, Amherst, N.H.), at 10 μg/mL in PBS, overnight at 4° C. After washing with PBS, AG23 was added at 1 μg/mL in 1% BSA-TBS and incubated at room temperature for 90 min. The remaining ELISA was completed as described above.

[2] = target: T2, copper oxidized LDL (CuOxLDL) (human, UniProt P04114 28-4563, limits assumed, copper-oxidized; enriched in oxidized phospholipid (OxPL); positions not stated); assay: chemiluminescent ELISA on plated antigen
T2 construct: A modified lipoprotein particle (protein plus lipid), prepared as in Gonen et al
T2 sequence (P04114 28-4563 limits assumed): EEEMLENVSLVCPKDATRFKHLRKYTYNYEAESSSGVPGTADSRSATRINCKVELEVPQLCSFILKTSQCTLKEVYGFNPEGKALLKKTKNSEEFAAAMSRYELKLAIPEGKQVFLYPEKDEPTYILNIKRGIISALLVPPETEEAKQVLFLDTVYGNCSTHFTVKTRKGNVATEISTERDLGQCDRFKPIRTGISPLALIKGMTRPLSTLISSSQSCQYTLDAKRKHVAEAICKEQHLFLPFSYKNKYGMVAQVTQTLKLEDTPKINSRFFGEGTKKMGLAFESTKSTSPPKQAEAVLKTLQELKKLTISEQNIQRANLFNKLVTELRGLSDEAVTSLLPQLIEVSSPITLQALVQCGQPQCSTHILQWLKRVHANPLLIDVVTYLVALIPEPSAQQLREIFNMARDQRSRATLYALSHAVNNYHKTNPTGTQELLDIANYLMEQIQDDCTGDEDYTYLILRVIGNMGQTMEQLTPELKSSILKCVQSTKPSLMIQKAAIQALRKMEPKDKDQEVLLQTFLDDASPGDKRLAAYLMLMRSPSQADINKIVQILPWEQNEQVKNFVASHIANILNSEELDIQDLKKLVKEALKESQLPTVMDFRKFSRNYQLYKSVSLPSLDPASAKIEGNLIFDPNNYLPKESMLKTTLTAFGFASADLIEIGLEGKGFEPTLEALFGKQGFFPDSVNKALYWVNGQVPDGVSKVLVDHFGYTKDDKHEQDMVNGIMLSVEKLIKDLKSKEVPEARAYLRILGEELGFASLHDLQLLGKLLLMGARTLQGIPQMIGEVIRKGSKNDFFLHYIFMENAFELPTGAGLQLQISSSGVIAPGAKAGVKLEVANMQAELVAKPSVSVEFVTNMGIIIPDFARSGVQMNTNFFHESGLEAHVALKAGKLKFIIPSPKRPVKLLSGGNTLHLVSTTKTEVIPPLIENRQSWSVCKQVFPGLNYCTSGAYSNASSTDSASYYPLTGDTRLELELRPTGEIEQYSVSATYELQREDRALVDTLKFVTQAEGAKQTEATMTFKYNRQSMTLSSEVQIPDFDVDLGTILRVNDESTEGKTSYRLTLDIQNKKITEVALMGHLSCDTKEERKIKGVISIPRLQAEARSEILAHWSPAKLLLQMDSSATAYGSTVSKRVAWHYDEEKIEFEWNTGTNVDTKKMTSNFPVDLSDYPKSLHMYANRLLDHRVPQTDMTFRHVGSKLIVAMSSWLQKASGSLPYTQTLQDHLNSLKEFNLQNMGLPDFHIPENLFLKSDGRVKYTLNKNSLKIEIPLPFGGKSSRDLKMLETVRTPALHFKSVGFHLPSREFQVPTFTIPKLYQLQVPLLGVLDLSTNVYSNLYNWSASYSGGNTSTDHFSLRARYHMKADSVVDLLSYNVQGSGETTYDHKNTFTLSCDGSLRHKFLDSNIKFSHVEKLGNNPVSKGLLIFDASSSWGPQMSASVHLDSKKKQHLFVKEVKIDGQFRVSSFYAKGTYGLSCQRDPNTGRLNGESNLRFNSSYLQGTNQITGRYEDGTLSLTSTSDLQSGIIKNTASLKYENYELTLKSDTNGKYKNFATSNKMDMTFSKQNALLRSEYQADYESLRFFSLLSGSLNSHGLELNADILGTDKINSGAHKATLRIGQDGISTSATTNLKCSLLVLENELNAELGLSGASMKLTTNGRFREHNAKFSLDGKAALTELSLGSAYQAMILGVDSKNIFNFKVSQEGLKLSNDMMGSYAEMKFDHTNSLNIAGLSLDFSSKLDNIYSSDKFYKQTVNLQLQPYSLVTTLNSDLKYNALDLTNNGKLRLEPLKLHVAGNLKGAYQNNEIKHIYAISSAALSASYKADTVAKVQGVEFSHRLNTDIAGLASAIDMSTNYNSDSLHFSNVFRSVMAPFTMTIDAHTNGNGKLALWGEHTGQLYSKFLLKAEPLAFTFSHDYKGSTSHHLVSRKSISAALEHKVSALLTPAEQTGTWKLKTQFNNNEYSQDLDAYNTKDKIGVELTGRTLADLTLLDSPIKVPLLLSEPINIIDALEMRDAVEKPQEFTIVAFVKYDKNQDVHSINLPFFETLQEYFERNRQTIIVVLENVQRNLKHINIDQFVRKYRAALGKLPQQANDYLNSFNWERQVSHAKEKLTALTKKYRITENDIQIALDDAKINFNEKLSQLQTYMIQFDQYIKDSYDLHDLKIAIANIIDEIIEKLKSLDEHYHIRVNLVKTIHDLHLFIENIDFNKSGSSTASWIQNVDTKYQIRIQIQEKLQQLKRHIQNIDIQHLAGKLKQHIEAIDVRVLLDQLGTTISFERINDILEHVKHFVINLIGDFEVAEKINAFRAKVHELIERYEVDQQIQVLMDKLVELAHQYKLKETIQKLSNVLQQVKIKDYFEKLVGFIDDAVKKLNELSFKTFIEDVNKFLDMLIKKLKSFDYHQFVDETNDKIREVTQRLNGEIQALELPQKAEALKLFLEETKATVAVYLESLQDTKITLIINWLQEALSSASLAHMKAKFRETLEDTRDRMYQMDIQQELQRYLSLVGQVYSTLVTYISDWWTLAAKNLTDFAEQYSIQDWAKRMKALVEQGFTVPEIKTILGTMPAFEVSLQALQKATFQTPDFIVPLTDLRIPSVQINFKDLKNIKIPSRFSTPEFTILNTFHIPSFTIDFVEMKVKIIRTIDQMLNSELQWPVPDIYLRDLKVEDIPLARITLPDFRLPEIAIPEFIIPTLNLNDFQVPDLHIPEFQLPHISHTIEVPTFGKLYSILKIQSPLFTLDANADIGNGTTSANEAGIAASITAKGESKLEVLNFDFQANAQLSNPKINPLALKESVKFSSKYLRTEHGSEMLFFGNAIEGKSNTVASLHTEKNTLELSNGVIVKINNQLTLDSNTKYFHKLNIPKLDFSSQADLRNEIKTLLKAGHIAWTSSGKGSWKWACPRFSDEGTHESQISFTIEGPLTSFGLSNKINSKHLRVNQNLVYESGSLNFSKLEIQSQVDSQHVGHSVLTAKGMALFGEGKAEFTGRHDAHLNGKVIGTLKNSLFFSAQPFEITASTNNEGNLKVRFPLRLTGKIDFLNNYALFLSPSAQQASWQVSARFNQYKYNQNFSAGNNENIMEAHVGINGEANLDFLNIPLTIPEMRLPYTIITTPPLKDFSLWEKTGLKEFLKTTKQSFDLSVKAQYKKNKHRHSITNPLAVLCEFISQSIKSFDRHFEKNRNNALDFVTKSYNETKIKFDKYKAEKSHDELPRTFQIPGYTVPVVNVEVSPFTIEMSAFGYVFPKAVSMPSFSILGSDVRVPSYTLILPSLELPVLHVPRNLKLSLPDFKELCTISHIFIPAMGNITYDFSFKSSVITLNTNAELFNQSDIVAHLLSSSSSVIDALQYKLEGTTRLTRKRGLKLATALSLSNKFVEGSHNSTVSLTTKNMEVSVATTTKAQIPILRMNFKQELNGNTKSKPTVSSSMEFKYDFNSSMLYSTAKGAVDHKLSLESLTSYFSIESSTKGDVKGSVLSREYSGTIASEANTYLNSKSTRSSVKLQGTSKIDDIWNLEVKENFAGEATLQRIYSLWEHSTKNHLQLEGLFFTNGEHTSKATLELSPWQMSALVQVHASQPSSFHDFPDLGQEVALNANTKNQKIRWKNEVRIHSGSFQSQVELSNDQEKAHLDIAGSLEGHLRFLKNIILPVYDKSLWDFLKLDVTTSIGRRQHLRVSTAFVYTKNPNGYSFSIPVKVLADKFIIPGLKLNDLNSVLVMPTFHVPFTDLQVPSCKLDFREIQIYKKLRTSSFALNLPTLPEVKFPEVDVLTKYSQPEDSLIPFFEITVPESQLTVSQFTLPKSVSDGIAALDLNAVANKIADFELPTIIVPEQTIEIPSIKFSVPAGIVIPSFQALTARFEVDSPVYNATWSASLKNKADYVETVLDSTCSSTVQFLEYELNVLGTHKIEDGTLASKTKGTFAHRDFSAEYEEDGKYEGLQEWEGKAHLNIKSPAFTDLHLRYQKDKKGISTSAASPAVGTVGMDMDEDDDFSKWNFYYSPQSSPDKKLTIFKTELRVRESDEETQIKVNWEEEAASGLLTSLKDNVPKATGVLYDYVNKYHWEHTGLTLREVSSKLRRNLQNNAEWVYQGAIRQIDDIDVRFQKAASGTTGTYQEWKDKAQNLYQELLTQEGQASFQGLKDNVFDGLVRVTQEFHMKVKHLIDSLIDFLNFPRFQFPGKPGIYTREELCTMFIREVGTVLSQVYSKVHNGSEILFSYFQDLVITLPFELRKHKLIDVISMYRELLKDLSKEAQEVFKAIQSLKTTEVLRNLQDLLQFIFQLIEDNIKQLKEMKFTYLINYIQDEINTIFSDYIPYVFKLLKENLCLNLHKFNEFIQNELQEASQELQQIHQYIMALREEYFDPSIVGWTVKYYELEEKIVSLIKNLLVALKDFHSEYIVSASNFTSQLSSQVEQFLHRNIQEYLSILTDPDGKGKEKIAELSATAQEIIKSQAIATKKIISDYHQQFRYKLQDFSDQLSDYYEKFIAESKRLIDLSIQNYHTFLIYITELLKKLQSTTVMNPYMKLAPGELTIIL
Protocol: Representative gel and blots from 20 repeats. (B) Representative results of AG23 (0.125 μg/mL) binding to BSA, OxCE-BSA, MDA-LDL and CuOxLDL (5 μg/mL). Four different OxCE-BSA preparations were tested in 12 independent experiments, with AG23 concentrations ranging from […]. […] Mean±SD; one-way ANOVA with multiple comparisons; ****, P<0.0001. (C) Competition ELISA: AG23 (0.01 μg/mL) was preincubated in the absence or presence of increasing concentrations of non-modified KLH or OxCE-KLH. Immune complexes were spun down, and supernatants were tested for binding to OxCE-BSA (5 μg/mL). Each data point is the mean of two independent assays in technical triplicates. (D) AG23 (1 μg/mL) binding to 10 μg/mL of non-modified G6K-OH and G6A-OH peptides, and the peptides subjected to the OxCE covalent modification. […] Mean±SD; n=6 for G6K and n=2 for G6A, each in technical duplicates; one-way ANOVA with multiple comparisons; **, P<0.01. (E-F) AG23 (0.15 μg/mL) was preincubated overnight with non-modified (250 μg/mL) or OxCE-modified (10-250 μg/mL) BSA or GDGDGK-OH peptide. […] After washes, AG23 binding to the wells was measured. […]
Monoclonal antibody binding to an array of epitopes was measured by chemiluminescent ELISA as described in Gonen et al. In brief, wells were coated with antigens at 5 μg/mL in PBS overnight at 4° C. […]

B1: monoclonal Ab (mAb) AG23 (antibody, mouse IgG1, kappa, V domains shown)
VH: EVQLQQSGPELVKPGASVKISCKASGYSFTGYYMNWVRQSPEKNLEWIGEINPYTGGTTYNQKFKARATLTVDKSSSTAYVQLKSLTSEDSAVYFCVSWDYDLDYWGQGTTLTVSS
VL: QIVLTQSPAFMSASPGEKVTMTCSASSSVSYMHWYQQKSGTSPKRWIYATSKVASGVPARFSGSGSGTSYSLTISSMEAEDAATYYCLQWSSNPYTFGGGTKLEIKR
notes: Murine hybridoma IgG purified over Protein A/G; Used biotinylated in some sandwich ELISAs; also called Clone 23; colony #23
[1]
  binding result: no binding (tested: AG23 1 µg/mL; peptide 10 µg/mL)
[2]
  binding result: no binding (tested: AG23 0.125 µg/mL; antigen 5 µg/mL)
